Data from PMC11557686.

Experiments:
Assay in all cases: NanoBiT
Details in all cases: six technical replicates in each of three independent biological replicates; parent: est. 1.0; read off a plot
[1] = molecular target: SmBiT-SEC24C (UniProt P53992)
[2] = molecular target: SmBiT-SEC24A (UniProt O95486)
[3] = molecular target: LgBiT-SURF4 (UniProt O15260)

Chain of UniProt P53992 (P53992 whole entry): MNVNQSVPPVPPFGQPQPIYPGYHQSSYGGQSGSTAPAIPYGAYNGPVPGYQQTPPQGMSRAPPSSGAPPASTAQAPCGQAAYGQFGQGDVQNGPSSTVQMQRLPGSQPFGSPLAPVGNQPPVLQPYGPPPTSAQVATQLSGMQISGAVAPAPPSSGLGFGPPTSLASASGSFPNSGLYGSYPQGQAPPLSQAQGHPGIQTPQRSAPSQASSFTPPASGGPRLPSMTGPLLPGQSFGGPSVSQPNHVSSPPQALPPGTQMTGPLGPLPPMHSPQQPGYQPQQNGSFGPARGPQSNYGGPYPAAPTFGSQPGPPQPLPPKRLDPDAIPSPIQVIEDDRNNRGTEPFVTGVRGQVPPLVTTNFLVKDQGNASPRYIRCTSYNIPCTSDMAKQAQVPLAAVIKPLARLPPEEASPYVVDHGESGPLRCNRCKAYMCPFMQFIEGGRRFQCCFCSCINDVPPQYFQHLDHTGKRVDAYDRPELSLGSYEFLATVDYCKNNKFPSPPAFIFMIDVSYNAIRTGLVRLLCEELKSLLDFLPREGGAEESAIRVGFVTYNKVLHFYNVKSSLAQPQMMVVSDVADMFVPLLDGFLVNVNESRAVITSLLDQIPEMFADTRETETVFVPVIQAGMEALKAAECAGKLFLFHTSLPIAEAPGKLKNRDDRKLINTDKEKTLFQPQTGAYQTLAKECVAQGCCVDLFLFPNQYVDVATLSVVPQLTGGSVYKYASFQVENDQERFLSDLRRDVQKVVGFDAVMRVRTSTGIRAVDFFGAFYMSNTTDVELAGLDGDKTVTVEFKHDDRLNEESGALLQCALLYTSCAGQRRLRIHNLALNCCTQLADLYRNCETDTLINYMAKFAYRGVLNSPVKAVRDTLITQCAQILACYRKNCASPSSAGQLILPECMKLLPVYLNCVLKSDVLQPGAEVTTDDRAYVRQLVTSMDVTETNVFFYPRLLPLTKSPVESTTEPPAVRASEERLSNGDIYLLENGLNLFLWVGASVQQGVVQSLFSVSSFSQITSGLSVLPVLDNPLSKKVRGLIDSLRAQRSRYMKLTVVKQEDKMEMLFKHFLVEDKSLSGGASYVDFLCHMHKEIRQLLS

Substance	ratio to parent [1]	ratio to parent [2]	ratio to parent [3]
LgBiT-SURF4 (from UniProt O15260) EW	0.78	0.85	–
SmBiT-SEC24A (from UniProt O95486) D-site	–	–	0.79
LgBiT-SURF4 (from UniProt O15260) DE	0.69	0.9	–
LgBiT-SURF4 (from UniProt O15260) Phe loop	0.82	0.43	–
